In patent publication US20200230115A1, “METHODS OF TREATING INFLUENZA-ASSOCIATED VIRAL PNEUMONIA” (priority 2017, published 2020):
Like-named read-outs stand apart in the source and are kept apart here.

Columns and labels:
AECII [1] = type: cell-based, mice
AECII [2] = assay: Flow cytometry of dispersed lung cells (pro SP-C, Ki67, IAV-NP) after in vivo treatment; parameters: species or system DBA/2J mice
IL-6, TNFα, KC, MCP-1 = type: in vivo
cytokines and chemokines = assay: Multiplex analysis of inflammatory mediators in BALF and serum; type: in vivo, DBA/2J mice

B1: KGF: keratinocyte growth factor, a potent pulmonary epithelial mitogen; cognate receptor FGFR2 (protein, UniProt P21781 32-194, looked up)
Fibroblast growth factor 7: CNDMTPEQMATNVNCSSPERHTRSYDYMEGGDIRVRRLFCRTQWYLRIDKRGKVKGTQEMKNNYNIMEIRTVAVGIVAIKGVESEFYLAMNKEGKLYAKKECNEDCNFKELILENHYNTYASAKWTHNGGEMFVALNQKGIPVRGKKTKKEQKTAHFLPMAIT
B1 was tested, and the “MCF per cell for IAV-NP” value (AECII [1]) was “returning to baseline”, the “mean fluorescence intensity of IAV-NP staining, Ki67 high vs Ki67 low” value (AECII [1]) was “greater in the Ki67 high (proliferating) than the Ki67 low (nonproliferating) population” and the “peak in expression of viral protein M1 (Western blot)” value (AECII [1]) was “occurred in AECII that were isolated 48 h after in vivo KGF challenge”. The “percentage of AECII infected after ex vivo IAV incubation” value (AECII [1]) was “remained near baseline levels”, the “percentage of AECII infected after ex vivo IAV incubation, time course” value (AECII [1]) was “highest in cells harvested 48 h after in vivo KGF treatment” and the “percentage of AECII proliferating (Ki67)” value (AECII [1]) was “returned to near baseline”. For the same molecule, the “percentage of AECII proliferating (Ki67), time course” value (AECII [1]) was “peaked at 48 h”, the “MCF per cell for IAV-NP, time course” value (AECII [1]; ex vivo IAV 18 h, peak) was “peaking in cells harvested at 48 h post KGF” and the “fold increase in percentage of AECII proliferating vs PBS” value (AECII [2]; 48 h after i.t. KGF 5 mg/kg) was “more than sevenfold”. The “percentage of AECII proliferating based on Ki67 staining” value (AECII [2]; 48 h after i.t. KGF 5 mg/kg, PBS-only mice 2%) was 14%, the “percentage of AECII infected (IAV-NP), time course” value (AECII [2]; KGF 24, 48 or 120 h before 50,000 particles i.t. IAV, peak) was “peaked in dispersed lung cells from mice that had been pretreated with KGF 48 h before infection” and the “mean channel fluorescence of IAV-NP (viral burden per cell), time course” value (AECII [2]; KGF 24, 48 or 120 h before IAV, peak) was “peaking in cells harvested at 48 h after KGF”. The “percentage of AECII infected (IAV-NP)” value (AECII [2]; KGF 120 h before inoculum) was “remained near PBS control levels”, the “mean channel fluorescence of IAV-NP (viral burden per cell)” value (AECII [2]; mouse, in vivo) was “remaining close to PBS control levels” and the “percentage of AECII infected vs PBS control mice” value (AECII [2]; mouse, in vivo) was “significantly greater”. For the same molecule, the “percentage of AECII proliferating (Ki67)” value (AECII [2]; mouse, in vivo) was “remaining similar to PBS control levels”, the “percentage of AECII proliferating (Ki67), time course” value (AECII [2]; mouse, in vivo) was “peaking in cells isolated from mice that had been dosed with KGF 48 h before PBS challenge” and the “TNFα increase, KGF alone vs naive controls” value (IL-6, TNFα, KC, MCP-1; KGF treatment alone, 48 and 72 h postchallenge) was “two- to threefold increases”. The “cytokine responses, KGF alone (other than TNFα)” value (IL-6, TNFα, KC, MCP-1; KGF treatment alone, no IAV, any point) was “no effect”, the “enhancement of IAV-induced IL-6, TNFα, KC, MCP-1 levels” value (IL-6, TNFα, KC, MCP-1; whole-lung homogenates, 48 and 72 h, KGF coadministration with IAV) was 10-50% and the “BAL IP10, MCP-5, TNFα, MIG, IL-6, MCP-1, G-CSF, M-CSF, IFNγ responses relative to PBS/IAV” value (cytokines and chemokines; BALF, 72 h after IAV with 5 mg/kg KGF i.t.) was “modestly augmented”. For the same molecule, the “serum inflammatory response to IAV (especially IP10, TNFα, MCP-1, IFNγ)” value (cytokines and chemokines; serum, IAV with 5 mg/kg KGF i.t.) was “augmented the inflammatory response”.
